Substitutions are numbered along the chain they refer to.
T1: CAPRIN-1 protein expressed on the cell surface of human cancer cells (human, UniProt Q14444 2-709)
T1 sequence (looked up): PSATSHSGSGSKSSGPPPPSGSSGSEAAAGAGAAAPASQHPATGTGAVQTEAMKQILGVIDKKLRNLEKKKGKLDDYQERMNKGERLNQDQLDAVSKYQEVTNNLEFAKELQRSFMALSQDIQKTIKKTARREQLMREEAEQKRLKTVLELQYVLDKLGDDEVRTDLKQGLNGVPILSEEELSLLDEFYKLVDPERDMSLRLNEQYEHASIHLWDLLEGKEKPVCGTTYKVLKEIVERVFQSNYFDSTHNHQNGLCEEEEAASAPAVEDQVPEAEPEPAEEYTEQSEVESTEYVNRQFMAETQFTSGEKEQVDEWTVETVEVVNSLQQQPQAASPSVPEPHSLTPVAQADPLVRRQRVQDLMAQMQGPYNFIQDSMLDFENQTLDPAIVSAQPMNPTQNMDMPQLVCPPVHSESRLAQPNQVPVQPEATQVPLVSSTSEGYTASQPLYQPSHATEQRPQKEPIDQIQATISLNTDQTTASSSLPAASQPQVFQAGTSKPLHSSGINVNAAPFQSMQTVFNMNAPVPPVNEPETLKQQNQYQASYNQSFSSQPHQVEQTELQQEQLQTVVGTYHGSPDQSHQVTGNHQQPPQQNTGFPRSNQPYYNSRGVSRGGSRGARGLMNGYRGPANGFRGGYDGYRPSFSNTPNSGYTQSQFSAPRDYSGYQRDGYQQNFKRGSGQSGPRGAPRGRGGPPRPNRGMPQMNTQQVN

T2: peptide set forth in SEQ ID NO: 267 (human)
T2 peptide: QQPQAASPSVPE

T3: polypeptide set forth in SEQ ID NO: 266 (human)
T3 construct: Identified from ELISA on 93 synthetic peptides of 12 to 16 amino acids of human CAPRIN-1
T3 peptide: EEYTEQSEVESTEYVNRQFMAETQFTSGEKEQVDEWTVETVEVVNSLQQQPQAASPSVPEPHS

T4: polypeptide comprising the amino acid sequence set forth in SEQ ID NO: 269 (human)
T4 peptide: PPVNEPETLKQQNQYQAS

T5: polypeptide set forth in SEQ ID NO: 431 (human)
T5 peptide: VERVFQSNYFDSTHNH

T6: human CAPRIN-1 recombinant protein (human, UniProt Q14444 1-709)
T6 construct: also called CAPRIN-1 protein; antigen protein (human CAPRIN-1 protein)
T6 sequence: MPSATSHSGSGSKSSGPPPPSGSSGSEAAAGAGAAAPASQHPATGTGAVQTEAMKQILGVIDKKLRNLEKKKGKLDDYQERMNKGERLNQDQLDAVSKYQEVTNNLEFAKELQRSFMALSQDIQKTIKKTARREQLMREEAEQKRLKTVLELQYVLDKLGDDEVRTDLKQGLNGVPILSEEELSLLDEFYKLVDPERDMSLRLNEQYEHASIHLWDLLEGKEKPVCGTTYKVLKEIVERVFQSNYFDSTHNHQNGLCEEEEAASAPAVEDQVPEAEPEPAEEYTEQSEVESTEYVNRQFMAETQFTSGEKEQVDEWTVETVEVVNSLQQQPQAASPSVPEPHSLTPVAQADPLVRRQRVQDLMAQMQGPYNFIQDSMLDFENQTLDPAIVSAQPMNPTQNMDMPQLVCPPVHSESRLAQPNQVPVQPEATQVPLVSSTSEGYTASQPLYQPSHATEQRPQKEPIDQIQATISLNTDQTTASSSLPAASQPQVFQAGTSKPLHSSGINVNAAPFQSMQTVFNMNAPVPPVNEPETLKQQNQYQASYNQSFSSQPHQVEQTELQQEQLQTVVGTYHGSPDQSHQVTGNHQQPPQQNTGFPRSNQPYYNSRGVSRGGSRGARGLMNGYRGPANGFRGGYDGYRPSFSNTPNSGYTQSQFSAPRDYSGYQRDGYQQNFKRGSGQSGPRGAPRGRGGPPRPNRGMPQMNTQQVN

T7: polypeptide set forth in SEQ ID NO: 430 (human)
T7 peptide: ATQVPLVSSTSEGYTA

B1: human-chicken chimeric antibody #1 (antibody, human IgG1, kappa, V domains shown)
VH: AVTLDESGGGLQMSRGGLSLVCKASGFDFSSYQMNWIRQAPGKGLEFVAAINKFGNSTGHGAAVKGRVTISRDNGQSTVRLQLNNLRAEDTAIYFCTKHAYGYCGSGTWCAAGEIDAWGHGTEVIVSS
VL: QAASTQPSSVSANPGETVEITCSGGGSYSYGWFQQKSPGSAPVTVIYYNNKRPSDIPSRFSGSKSGSTGTLTITGVQADDEAVYYCGSGDSTDTAVFGAGTTLTVLG
notes: also called human-chicken chimeric monoclonal antibody #1
B2: human-chicken chimeric antibody #3 (antibody, human IgG1, kappa, V domains shown)
VH: AVTLDESGGGLQTPGGALSLVCKASGFTFSGYDMLWVRQAPGKGLEWVAGIGSTGGGTDYGAAVKGRATISRDNGQSTVRLQLNNLRAEDTATYYCAKVAGGCNSGYCRDSPGSIDAWGHGTEVIVSA
VL: AVTQQPASVSANPGETVKITCSGGGSRNYYGWYQQKSPGSVPVTVIYYDDQRPSNIPSRFSGALSGSTSTLTITGVQADDEAVYFCGSADSNTYEGSFGAGTTLTVLT
notes: Produced 'similarly' to human-chicken chimeric antibody #1 from chicken monoclonal antibody #3; also called human-chicken chimeric monoclonal antibody #3
B3: mouse monoclonal antibody #4 (antibody, V domains shown)
VH: GAELVRSGASVKMSCKASGYSFTDYNMYWVKQTPGQGLEWIGYIYPGNGGTNYNQKFKGKATLTADTSSSTAYMQISSLTSEDSAVYFCARDYDDGGYAMDYWGQGTTVTVSS
VL: DIQMTQSPASLSASVGETVTITCRASGNIHNYLTWYQQKQGKSPQLLVYNAKTLADGVPSRFSGSGSGTQYSLKINRLQPEDFGSYYCQHFWNIPWTFGGGTKLNSR
notes: mouse hybridoma antibody; also called anti-CAPRIN-1 mouse monoclonal antibody #4; anti-CAPRIN-1 monoclonal antibody #4
B4: mouse anti-CAPRIN-1 antibody #34 (antibody, V domains shown)
VH: GAELVRPGTSVKVSCKASVYAFTNYLIEWVKQRPGQGLEWIGVINPKSGGTKYNEKFRGKATLTADKSSSTAYMQLSSLTSGDSAVYFCAITGTDYWGQGTTLTVSS
VL: QGTRCDIQMTQTTSSLSASLGDRVTISCSASQGINNYLNWYQQKPDGTVKLLIYYTSSLRSGVPSRFSGSGSGTDYSLTISNLEPEDVATYYCQQYSKLPRTFGGGTKLEIKR
notes: mouse hybridoma antibody; also called mouse anti-CAPRIN-1 monoclonal antibody #34; mouse anti-CAPRN-1 antibody #34
B5: mouse anti-CAPRIN-1 antibody #31 (antibody, V domains shown)
VH: GPELVKPGASVKISCKASGYSFTGYFMNWVMQSHGKSLEWIGRINPYNGDTFYNQKFKGKATLTVDKSSSTAHMELRSLASEDSAVYYCARRIHYYYGSSYYAMDYWGQEPHH
VL: DVQITQSPSYLAASPGETITINCRASKSISKYLAWYQEKPGKTNKLLIYSGSTLQSGIPSRFSGSGSGTDFTLTISSLEPEDFAMYYCQQHNEYPWTFGGGTKLEIKR
notes: mouse hybridoma antibody; also called mouse anti-CAPRIN-1 monoclonal antibody #31
B6: mouse anti-CAPRIN-1 antibody #33 (antibody)
chain 1: GPGLVKPSQSLSLTCSVTGYSITSGYYWNWIRQFPGNKLEWMGYISYDGSNNYNPSLKNRISITRDTSKNQFFLKLNSVTTEDTATYYCATGMAWFAYW
chain 2: not shown
B7: humanized anti-CAPRIN-1 antibody #2 (antibody, human IgG1, V domains shown)
VH: EVQLVESGGGLVQPGGSLRLSCAASGFSFSGSYYMSWVRQAPGKGLEWIAYIYIGDGVTAYANWAKGRFTISKDNSKNTLYLQMNSLRAEDTAVYFCARGNKLWGPGTLVTVSS
VL: DIQMTQSPSSLSASVGDRVTIKCQASQSISSYLAWYQQKPGKAPKRLIYDASNLDSGVPSRFSGSGSGTDFTFTISSLQPEDIATYYCQCTAVSSATIYGNAFGGGTKVEIK
B8: humanized anti-CAPRIN-1 antibody #1 (antibody, human IgG1, V domains shown)
VH: B7 VH with E1Q, Q13K, K73R, S76A, T79S, K102R, P106Q
VL: B7 VL with S14A, A43P
B9: humanized anti-CAPRIN-1 antibody #3 (antibody, human IgG1, V domains shown)
VH: B7 VH with K73R, F96Y
VL: B7 VL

Key:
[1] = molecular target: T1, CAPRIN-1 protein expressed on the cell …; assay: cell-based or functional assay
[2] = molecular target: T2, peptide set forth in SEQ ID NO: 267; assay: ELISA on immobilized synthetic CAPRIN-1 peptides, culture supernatant
[3] = molecular target: T3, polypeptide set forth in SEQ ID NO: 266; assay: as above
[4] = molecular target: T4, polypeptide comprising the amino acid …; assay: as above
[5] = molecular target: T1, CAPRIN-1 protein expressed on the cell …; assay: flow cytometry, TGBC14TKB cells, culture supernatant, isotype control antibody as control
Procedure: Subsequently, a gallbladder cell line TGBC14TKB, which was confirmed to express a CAPRIN-1 gene, was investigated for whether or not a CAPRIN-1 protein is expressed on the surfaces of these cells. 1×10⁶ cells of TGBC14TKB were centrifuged with a 1.5-mL micro centrifugation tube. To the cells was added the culture supernatant (100 μL) containing any of anti-CAPRIN-1 mouse monoclonal antibodies #1 to #22 reacting to cancer cell surface produced in Example 4 and anti-CAPRIN-1 mouse-chicken chimeric antibodies #1 to #3 produced in the above (2), followed by being left to stand on ice for 1 hour. After washing with PBS, the cells were suspended in a FITC-labeled goat anti-mouse IgG antibody (manufactured by life technologies) diluted by 500-fold with PBS containing 0.1% FBS, followed by being left to stand on ice for 1 hour. After washing with PBS, the fluorescence intensity was measured with FACS Calibur available from Becton, Dickinson and Company. Separately, as a control, the same procedure as in above was performed using an iso-type control antibody, instead of the culture supernatants containing the anti-CAPRIN-1 mouse monoclonal antibodies #1 to #22 and the mouse-chicken chimeric antibodies #1 to #3. As a result, the fluorescence intensity in the cells to which any of the monoclonal antibodies #1 to #22 and the mouse-chicken chimeric antibodies #1 to #3 was added was 20% or more higher than that in the control in every case. Specifically, in the case of using mouse-chicken chimeric antibody #1, the fluorescence intensity was enhanced by 200% or more. […] The rate of increase in the fluorescence intensity is represented by the rate of increase in the mean fluorescence intensity (MFI value) in each cell and is calculated by the following calculation formula: […]

[6] = molecular target: T5, polypeptide set forth in SEQ ID NO: 431; assay: ELISA on immobilized synthetic CAPRIN-1 peptides, culture supernatant
[7] = molecular target: T1, CAPRIN-1 protein expressed on the cell …; assay: flow cytometry, TGBC14TKB cells, antibody 20 ug/mL, secondary antibody only as control
Procedure: (§1) A human gallbladder cancer cell line TGBC14TKB was investigated whether or not a CAPRIN-1 protein is expressed on the cell surface. 5×10⁵ cells of the gallbladder cancer cell line were centrifuged with a 1.5-mL micro centrifugation tube. The cells were subjected to reaction with each mouse anti-CAPRIN-1 antibody at a final concentration of 20 μg/mL, followed by being left to stand on ice for 1 hour. After washing with PBS, the cells were reacted with a 100-fold diluted Alexa488-labeled goat anti-mouse IgG antibody (manufactured by life technologies), followed by being left to stand on ice for […]. After washing with PBS, the fluorescence intensity was measured with FACS Calibur available from Becton, Dickinson and Company. As a negative control, only the secondary antibody was used in the reaction.
as §1, with “cell surface using mouse anti-CAPRIN-1 monoclonal antibodies #30 to #36.” for “cell surface.”, “of TGBC14TKB” for “of the gallbladder cancer cell line”, “each of” for “each”, “anti-CAPRIN-1 antibodies #30 to #36” for “anti-CAPRIN-1 antibody”, “Company. Separately, the cells were subjected to reaction with” for “Company. As a negative control,”, “antibody as a negative control.” for “antibody was used in the reaction.”

[8] = molecular target: T6, human CAPRIN-1 recombinant protein; assay: reactivity with CAPRIN-1 protein, method not detailed
[9] = molecular target: T1, CAPRIN-1 protein expressed on the cell …; assay: reactivity with gallbladder cancer cell lines, method not detailed
[10] = molecular target: T7, polypeptide set forth in SEQ ID NO: 430; assay: reactivity with the epitope peptide, method not detailed

Row | Binder | cytotoxicity (ADCC, 51Cr release) on TGBC14TKB, human NK cells [1] [%] | increase in fluorescence intensity over control [7] [%] | binding result [8] | binding result [9] | binding result [10] | other results
1 | B1 | 20 |  |  |  |  | binding result [2]: binds; binding result [3]: binds
2 | B2 | ≥ 15 |  |  |  |  | binding result [4]: binds
3 | B3 | ≥ 15 |  |  |  |  | rate of increase in mean fluorescence intensity over control [5]: ≥ 20%; binding result [2]: binds; binding result [3]: binds
4 | B4 |  | ≥ 35 |  |  |  | binding result [6]: binds
5 | B5 |  | ≥ 35 |  |  |  | 
6 | B6 |  | ≥ 35 |  |  |  | 
7 | B7 |  |  | binds | binds | binds | 
8 | B8 |  |  | binds | binds | binds | 
9 | B9 |  |  | binds | binds | binds | 
